B1: Caspase Dronc (Drosophila melanogaster (Fruit fly)), Q9XYF4 (parent)
chain: MQPPELEIGMPKRHREHIRKNLNILVEWTNYERLAMECVQQGILTVQMLRNTQDLNGKPFNMDEKDVRVEQHRRLLLKITQRGPTAYNLLINALRNINCLDAAVLLESVDESDSRPPFISLNERRTSRKSADIVDTPSPEASEGPCVSKLRNEPLGALTPYVGVVDGPEVKKSKKIHGGDSAILGTYKMQSRFNRGVLLMVNIMDYPDQNRRRIGAEKDSKSLIHLFQELNFTIFPYGNVNQDQFFKLLTMVTSSSYVQNTECFVMVLMTHGNSVEGKEKVEFCDGSVVDMQKIKDHFQTAKCPYLVNKPKVLMFPFCRGDEYDLGHPKNQGNLMEPVYTAQEEKWPDTQTEGIPSPSTNVPSLADTLVCYANTPGYVTHRDLDTGSWYIQKFCQVMADHAHDTDLEDILKKTSEAVGNKRTKKGSMQTGAYDNLGFNKKLYFNPGFFNE
B2: Caspase Dronc (Drosophila melanogaster (Fruit fly)), Q9XYF4 (parent)
chain: B1 chain
partner: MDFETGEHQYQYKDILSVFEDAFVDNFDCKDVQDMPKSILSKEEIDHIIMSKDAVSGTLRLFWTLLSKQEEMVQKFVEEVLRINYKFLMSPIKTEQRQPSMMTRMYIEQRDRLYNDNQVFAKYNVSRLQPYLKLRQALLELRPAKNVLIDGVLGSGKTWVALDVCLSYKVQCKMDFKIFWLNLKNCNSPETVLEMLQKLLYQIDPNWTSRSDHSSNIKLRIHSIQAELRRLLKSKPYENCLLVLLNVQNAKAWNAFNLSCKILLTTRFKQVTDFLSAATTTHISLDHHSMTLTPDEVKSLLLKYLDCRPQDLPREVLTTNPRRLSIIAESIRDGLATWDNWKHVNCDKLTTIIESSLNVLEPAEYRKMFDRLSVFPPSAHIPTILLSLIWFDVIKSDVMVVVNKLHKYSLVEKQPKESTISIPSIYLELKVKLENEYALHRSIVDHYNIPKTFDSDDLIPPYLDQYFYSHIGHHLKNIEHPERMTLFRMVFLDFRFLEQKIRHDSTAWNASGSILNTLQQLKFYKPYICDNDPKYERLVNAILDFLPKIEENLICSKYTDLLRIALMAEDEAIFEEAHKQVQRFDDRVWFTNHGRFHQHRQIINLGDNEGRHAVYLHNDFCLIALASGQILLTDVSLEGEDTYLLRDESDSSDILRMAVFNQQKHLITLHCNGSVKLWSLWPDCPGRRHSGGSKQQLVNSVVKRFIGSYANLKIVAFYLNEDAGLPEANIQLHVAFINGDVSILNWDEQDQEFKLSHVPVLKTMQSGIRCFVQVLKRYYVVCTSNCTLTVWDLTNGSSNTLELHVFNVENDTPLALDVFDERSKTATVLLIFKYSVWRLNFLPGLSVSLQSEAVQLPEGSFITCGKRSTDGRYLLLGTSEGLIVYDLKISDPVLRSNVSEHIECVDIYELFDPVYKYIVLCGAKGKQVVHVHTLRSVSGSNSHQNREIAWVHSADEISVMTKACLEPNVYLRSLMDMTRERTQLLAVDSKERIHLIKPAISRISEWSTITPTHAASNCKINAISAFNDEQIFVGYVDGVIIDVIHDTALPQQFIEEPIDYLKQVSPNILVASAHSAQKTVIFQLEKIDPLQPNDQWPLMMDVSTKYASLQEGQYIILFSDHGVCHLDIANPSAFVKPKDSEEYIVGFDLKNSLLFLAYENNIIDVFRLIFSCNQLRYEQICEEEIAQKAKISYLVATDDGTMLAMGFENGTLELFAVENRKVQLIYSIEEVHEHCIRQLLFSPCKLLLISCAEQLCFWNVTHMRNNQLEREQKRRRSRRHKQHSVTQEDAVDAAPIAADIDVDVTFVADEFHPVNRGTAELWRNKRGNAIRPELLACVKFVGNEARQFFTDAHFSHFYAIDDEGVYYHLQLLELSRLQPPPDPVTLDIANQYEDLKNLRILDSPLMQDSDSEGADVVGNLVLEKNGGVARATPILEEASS

Variants of: B1
Conditions: with kcc2a_drome CaMKII

| effect of a mutation on the interaction | Variant |
| --- | --- |
| disrupting interaction | S130A |

Variants of: B2
Conditions: with apaf_drome Dark

| effect of a mutation on the interaction | Variant |
| --- | --- |
| increasing interaction | C318A |
| increasing interaction | S130A |
